The record followed here is article PMC2175135.

In the test the target is LexA-tpr-met-Gab1Cter Y473F Y590F (two-hybrid bait) (UniProt Q9QYY0). In words: two-hybrid.

“COOH-terminal SH2 domain of p85α PI(3)K (two-hybrid prey) (from UniProt P26450 624-718) (domain or fragment)” registered a percent of the interaction with Gab1Cter of 25%.
